Laboratory results: the Human Domainome abundance scans (Beltran et al. 2025)
± gives the uncertainty stated by the source.

B1: Tudor domain-containing protein 3, residues 554 to 611; numbered along this chain, Q9H7E2 (parent)
chain: KMWKPGDECFALYWEDNKFYRAEVEALHSSGMTAVVKFIDYGNYEEVLLSNIKPIQTE

Variants of: B1
Experiment: abundance fitness (aPCA) (normalised: wild type 0, dead -1); higher = more abundant; growth selection in yeast, the domain comes from the species named
Conditions: Homo sapiens
In the case of K53D, the abundance fitness is reported as -0.659 ± 0.092. K53A showed an abundance fitness of -0.276 ± 0.062. Work on K53Q yielded an abundance fitness of -0.12 ± 0.1. K53I gave an abundance fitness of -0.145 ± 0.092. Variant K53V has an abundance fitness of -0.194 ± 0.057. Work on F38R yielded an abundance fitness of -0.894 ± 0.081. F38Q showed an abundance fitness of -0.946 ± 0.13. In the case of F38V, the abundance fitness is reported as -0.787 ± 0.077. K4V gave an abundance fitness of -0.244 ± 0.065. With K4I the abundance fitness was -0.415 ± 0.11. With K4A the abundance fitness was -0.092 ± 0.082. Variant H28T has an abundance fitness of -0.065 ± 0.075. Work on H28G yielded an abundance fitness of 0.034 ± 0.055. With H28E the abundance fitness was -0.159 ± 0.082. With L12I the abundance fitness was -0.272 ± 0.14. In the case of L12Y, the abundance fitness is reported as -0.754 ± 0.2. In the case of L12F, the abundance fitness is reported as -0.493 ± 0.15. N43H gave an abundance fitness of -0.073 ± 0.17. N43P showed an abundance fitness of -0.563 ± 0.11. In the case of N43T, the abundance fitness is reported as 0.073 ± 0.078. N43W gave an abundance fitness of -0.059 ± 0.058. In the case of A26F, the abundance fitness is reported as 0.101 ± 0.21. A26N gave an abundance fitness of -0.079 ± 0.16. Variant A26P has an abundance fitness of -0.897 ± 0.2. With A26C the abundance fitness was -0.063 ± 0.15. With A26R the abundance fitness was 0.049 ± 0.083. In the case of A26E, the abundance fitness is reported as 0.211 ± 0.17. With L48K the abundance fitness was -0.1 ± 0.081. Y44E gave an abundance fitness of 0.012 ± 0.092. For Y44I, the abundance fitness was -0.015 ± 0.13. Y44L showed an abundance fitness of -0.05 ± 0.077. With Y44G the abundance fitness was -0.767 ± 0.062. A34G showed an abundance fitness of -0.413 ± 0.054. For A34R, the abundance fitness was -0.85 ± 0.088. Variant A34C has an abundance fitness of -0.072 ± 0.091. In the case of K1V, the abundance fitness is reported as -0.225 ± 0.13. With K1E the abundance fitness was -0.143 ± 0.2. K1I showed an abundance fitness of 0.134 ± 0.2. K1L showed an abundance fitness of -0.187 ± 0.18. F10E gave an abundance fitness of 0.023 ± 0.081. With F10V the abundance fitness was -0.128 ± 0.064. For P5N, the abundance fitness was 0.03 ± 0.15. For P5A, the abundance fitness was -0.017 ± 0.077. Variant P5G has an abundance fitness of -0.61 ± 0.064. Variant Y41I has an abundance fitness of 0.076 ± 0.11. Work on Y41C yielded an abundance fitness of -0.019 ± 0.075. E58R showed an abundance fitness of -0.111 ± 0.12. In the case of E58A, the abundance fitness is reported as -0.133 ± 0.085. For T57I, the abundance fitness was -0.036 ± 0.11. In the case of T57K, the abundance fitness is reported as -0.047 ± 0.16. In the case of T57A, the abundance fitness is reported as 0.041 ± 0.065. For T57R, the abundance fitness was -0.047 ± 0.059. For T57N, the abundance fitness was 0.019 ± 0.11. With T57S the abundance fitness was 0.021 ± 0.063. Variant T57Y has an abundance fitness of -0.072 ± 0.11. S29H gave an abundance fitness of -0.05 ± 0.14. Work on S29Q yielded an abundance fitness of -0.11 ± 0.1. In the case of S29A, the abundance fitness is reported as 0.114 ± 0.075. K18V gave an abundance fitness of -0.255 ± 0.069. For K18T, the abundance fitness was -0.087 ± 0.087. For K18P, the abundance fitness was -0.949 ± 0.16. Variant L49P has an abundance fitness of -0.922 ± 0.14. L49K showed an abundance fitness of -0.774 ± 0.13. Work on L49I yielded an abundance fitness of -0.026 ± 0.085. V35D showed an abundance fitness of -0.426 ± 0.12. With V35W the abundance fitness was -0.087 ± 0.069. Work on V35Q yielded an abundance fitness of 0.058 ± 0.081. In the case of V35A, the abundance fitness is reported as -0.277 ± 0.074. Work on V35H yielded an abundance fitness of -0.403 ± 0.15. For V35E, the abundance fitness was -0.227 ± 0.087. Variant Q56T has an abundance fitness of -0.003 ± 0.087. In the case of Q56L, the abundance fitness is reported as -0.07 ± 0.057. Q56K showed an abundance fitness of -0.065 ± 0.096. Q56H gave an abundance fitness of 0.041 ± 0.086. A22S gave an abundance fitness of -0.637 ± 0.087. Work on A22T yielded an abundance fitness of -0.865 ± 0.14. For A22D, the abundance fitness was -0.93 ± 0.13. P54C gave an abundance fitness of -0.429 ± 0.093. P54Q gave an abundance fitness of -0.188 ± 0.097. For P54I, the abundance fitness was -0.5 ± 0.12. For P54W, the abundance fitness was -0.767 ± 0.085. In the case of P54H, the abundance fitness is reported as -0.181 ± 0.12. For P54N, the abundance fitness was -0.41 ± 0.13. With R21M the abundance fitness was -0.506 ± 0.096. W3F showed an abundance fitness of 0.031 ± 0.12. W3V showed an abundance fitness of -0.053 ± 0.068. W3Q showed an abundance fitness of -0.721 ± 0.4. W3I showed an abundance fitness of -0.059 ± 0.13. Work on W3H yielded an abundance fitness of -0.842 ± 0.21. M32S showed an abundance fitness of 0.02 ± 0.065. M32G showed an abundance fitness of -0.031 ± 0.055. For E46C, the abundance fitness was -0.279 ± 0.099. Work on E46S yielded an abundance fitness of -0.029 ± 0.076. E46K gave an abundance fitness of -0.205 ± 0.15. With E15I the abundance fitness was -0.156 ± 0.11. Work on C9A yielded an abundance fitness of -0.765 ± 0.1. Variant C9P has an abundance fitness of -0.905 ± 0.12. C9F gave an abundance fitness of -0.915 ± 0.16. With C9S the abundance fitness was -0.942 ± 0.1. With C9L the abundance fitness was -0.913 ± 0.086. Work on E45K yielded an abundance fitness of -0.43 ± 0.1. E45V gave an abundance fitness of -0.392 ± 0.072. Work on E45F yielded an abundance fitness of -0.768 ± 0.17. E45A gave an abundance fitness of -0.041 ± 0.066. Variant N51I has an abundance fitness of -0.837 ± 0.13. N51A showed an abundance fitness of -0.308 ± 0.065. For N51M, the abundance fitness was -0.364 ± 0.075. With N51L the abundance fitness was -0.727 ± 0.071. Variant N51K has an abundance fitness of -0.418 ± 0.076. In the case of N51E, the abundance fitness is reported as -0.272 ± 0.069. For M2V, the abundance fitness was -0.164 ± 0.07. Work on M2A yielded an abundance fitness of -0.192 ± 0.075. For Y13N, the abundance fitness was 0 ± 0.1. For Y13G, the abundance fitness was -0.252 ± 0.061. Work on Y13I yielded an abundance fitness of -0.975 ± 0.24. Variant Y13V has an abundance fitness of -0.897 ± 0.1. In the case of T33R, the abundance fitness is reported as -0.088 ± 0.052. Variant T33V has an abundance fitness of -0.232 ± 0.078. Work on V47F yielded an abundance fitness of -0.636 ± 0.17. V47E gave an abundance fitness of -0.925 ± 0.11. V47H showed an abundance fitness of -0.733 ± 0.17. W14M gave an abundance fitness of 0.066 ± 0.1. In the case of W14I, the abundance fitness is reported as -0.131 ± 0.11. Variant W14Y has an abundance fitness of -0.006 ± 0.12. Work on W14N yielded an abundance fitness of 0.139 ± 0.1. W14R gave an abundance fitness of 0.071 ± 0.056. For G31H, the abundance fitness was -0.099 ± 0.088. G31C showed an abundance fitness of -0.12 ± 0.069. G31E showed an abundance fitness of -0.092 ± 0.093. Work on G31N yielded an abundance fitness of -0.057 ± 0.14. G31W showed an abundance fitness of -0.658 ± 0.099. With I52Q the abundance fitness was -1.01 ± 0.19. In the case of I52G, the abundance fitness is reported as -0.895 ± 0.064. I52T showed an abundance fitness of -0.686 ± 0.14. For K37D, the abundance fitness was -0.74 ± 0.14. For K37G, the abundance fitness was -0.833 ± 0.065. In the case of K37H, the abundance fitness is reported as -0.32 ± 0.14. E25H gave an abundance fitness of -0.039 ± 0.1. Work on E25F yielded an abundance fitness of -0.041 ± 0.098. E25N gave an abundance fitness of -0.111 ± 0.13. Work on E25W yielded an abundance fitness of -0.101 ± 0.074. With Y20N the abundance fitness was -0.68 ± 0.18. In the case of Y20K, the abundance fitness is reported as 0.072 ± 0.091. Variant Y20A has an abundance fitness of -0.228 ± 0.068. Y20F gave an abundance fitness of -0.807 ± 0.17. Variant Y20E has an abundance fitness of -0.516 ± 0.09. Variant Y20P has an abundance fitness of -0.918 ± 0.14. With Y20G the abundance fitness was -0.732 ± 0.072. For L27Y, the abundance fitness was -0.911 ± 0.18. With L27H the abundance fitness was -0.675 ± 0.18. Variant L27S has an abundance fitness of -0.749 ± 0.1. Work on L27T yielded an abundance fitness of -0.301 ± 0.12. Work on L27F yielded an abundance fitness of -0.716 ± 0.14. Work on D7C yielded an abundance fitness of -0.573 ± 0.14. Variant D7W has an abundance fitness of -0.882 ± 0.093. Variant D7Y has an abundance fitness of -0.712 ± 0.12. With E23G the abundance fitness was -0.596 ± 0.075. In the case of E23R, the abundance fitness is reported as 0.032 ± 0.057. In the case of E23P, the abundance fitness is reported as -0.838 ± 0.11. In the case of I55G, the abundance fitness is reported as -0.351 ± 0.051. I55E showed an abundance fitness of -0.558 ± 0.099. For I55T, the abundance fitness was -0.18 ± 0.097. In the case of I55Y, the abundance fitness is reported as -0.132 ± 0.11. Variant I55K has an abundance fitness of -0.139 ± 0.089. I55W showed an abundance fitness of -0.372 ± 0.078. G6C gave an abundance fitness of -0.86 ± 0.093. With G6L the abundance fitness was -0.836 ± 0.083.
